{"source": "paper PMC7812859", "about": "“Structure of SARS-CoV-2 ORF8, a rapidly evolving immune evasion protein” (Proceedings of the National Academy of Sciences of the …, 2020)", "proteins": {"B1": {"name": "SeMet-labeled V32M/L84M ORF8 double mutant (domain or fragment)", "chain": "QECSLQSCTQHQPYMVDDPCPIHFYSKWYIRVGARKSAPLIELCVDEAGSKSPIQYIDIGNYTVSCMPFTINCQEPKLGSLVVRCSFYEDFLEYHDVRVVLDFI", "modifications": "selenomethionine (SeMet-labeled)", "notes": "also called ORF8 V32M, L84M double-mutant; SeMet-labeled ORF8 double-mutant protein"}}, "molecular_target": "the molecule itself", "assay": "crystal structure"}
{"protein": "B1", "values": [{"measurement": "binding result", "result": "binds"}]}
